Reference: the supplement of paper PMC10567573

B1: SNAP91 (parent)
chain: FSTDAFSSPPQGASPVPESSLTAD
B2: CAMK2A (parent)
chain: ILLVGYPPFWDEDQHRLYKQIKAG

Variants of: B1
Test: protein stability index of a GFP-peptide fusion (GPS, HEK-293T) (PSI 1-6); higher = more stable
Conditions: c terminus: a fixed tail appended
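Further: lentivirally expressed fusions sorted by FACS into six bins by GFP to DsRed ratio, PSI derived from sequencing read proportions per bin multiplied by bin number.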

Protein stability index, by site and new letter:
S19: L 2.79 | Q 3.1 | W 2.76 | D 3.6 | V 2.85 | C 3.19 | G 2.46 | Y 3.25 | K 2.23 | I 2.91 | A 3.08 | P 3.09 | E 3.19 | H 3.13 | M 2.66 | R 2.55 | T 3.54 | F 2.58 | N 3.44
D24: L 3.07 | H 2.42 | M 3.19 | A 3.03 | T 2.89 | W 1.87 | F 2.12 | G 2.75 | S 2.78 | I 2.92 | K 3.18 | C 2.83 | R 3.49 | Q 3.01 | N 2.62 | E 3.02 | V 2.18 | Y 2.25
T22: G 3.3 | S 3.63 | P 2.83 | K 2.64 | H 3.09 | Q 3.36 | V 3.41 | F 2.96 | L 3.63 | D 3.46 | R 2.93 | E 3.86 | W 2.28 | C 3.3 | I 3.21 | A 2.92 | M 3.31 | N 3.09 | Y 3.21
P15: W 2.37 | Y 2.44 | S 3.03 | V 3.05 | T 3.17
L21: K 3.12 | T 3.45 | E 4.1 | F 3.1 | P 3.33 | M 3.11 | C 3.38 | Q 3.53 | I 3.01 | A 3.44 | V 3.39 | R 3.11 | H 3.47 | W 2.92 | G 3.14 | Y 2.81 | S 3.58 | N 3.39 | D 3.86
P17: W 2.41 | M 3.13 | F 2.86 | Y 2.69 | D 4.14 | S 3.86 | G 3.66 | L 3.23 | Q 3.21 | K 2.9 | V 3.25 | R 3.31 | T 2.83 | N 3.52 | E 3.89 | I 3.04 | H 3.85 | A 3.79 | C 3.01
V16: H 3.17 | D 3.12 | N 3.31 | K 2.96 | L 2.83 | S 2.96 | Q 3.33 | C 2.67 | M 2.68 | A 3.6 | W 2.21 | G 3.66 | T 2.96 | I 3.29 | F 2.7 | E 4 | Y 2.96 | R 3.22
E18: G 3.05 | M 2.83 | S 3.19 | A 3.22 | W 2.26 | P 2.78 | C 2.43 | N 2.61 | T 2.81 | D 3.15 | K 2.51 | Q 3.12 | Y 2.74 | R 2.65 | F 2.45 | I 2.63 | V 3.05 | H 2.69 | L 2.42
S20: V 2.77 | F 2.68 | E 3.49 | A 3.56 | L 2.72 | G 3.04 | R 3.13 | H 3.04 | W 2.52 | M 2.98 | K 3.09 | P 2.46 | N 3.38 | Y 2.93 | I 2.81 | Q 3.04 | C 3.18 | T 3.47 | D 3.48
A23: I 3.08 | V 2.96 | L 3.23 | R 2.96 | M 2.97 | H 2.85 | S 2.94 | F 3.01 | E 3.35 | W 2.65 | P 2.8 | N 3.5 | D 3.36 | T 3.35 | K 3.49 | G 3.09 | C 2.23 | Q 3.91

Variants of: B2
Test: as above
Conditions: c terminus: a fixed tail appended

Protein stability index, by site and new letter:
I1: Y 1.73 | T 1.58 | P 2.27 | M 1.8 | K 2.23 | C 2.39 | F 1.72 | G 2.21 | S 2.33 | D 2.1 | Q 1.82 | L 2.05 | N 2.03 | R 2.54 | A 2.25 | E 2.96 | V 2.15
L2: Q 1.42 | I 2.57 | K 1.63 | E 2.04 | Y 2.93 | T 1.86 | V 1.67 | F 1.3 | D 2.12 | A 1.6 | C 2.11 | S 1.75 | P 1.86 | H 1.72 | M 3.1 | N 1.52 | G 2.4
P7: V 2.63 | F 2.85 | L 2.89 | H 3.75 | D 1.39 | Q 1.28 | Y 4.41 | A 1.47 | M 2.9 | W 2.73 | I 2.46 | G 2.31 | T 2.56 | E 1.43
P8: C 4.72 | L 1.81 | T 1.87 | M 1.89 | K 2.06 | Y 1.98 | F 2.95 | E 2.1 | A 1.83 | V 2.96 | N 4.23 | R 3.38 | D 1.67
F9: T 1.84 | S 2.19 | G 1.67 | E 1.44 | I 1.62 | R 2.83 | Y 1.5 | W 1.28 | K 2.52 | Q 2.38 | P 2.13 | L 2.27 | C 2.58 | M 1.99 | D 1.77 | A 1.65 | N 2.86 | H 1.84 | V 2.37
W10: N 1.71 | H 1.56 | I 2.71 | C 1.64 | G 1.86 | Q 2.27 | L 2.54 | A 1.73 | M 1.18 | D 1.69 | P 3.75 | F 2.27 | E 1.78 | K 1.6
V4: A 1.07 | S 1.65 | C 1.64 | Q 2.33 | R 1.47 | G 2.24 | T 2.31 | D 2.4 | E 1.53 | H 2.23 | L 2.66 | I 3.1 | N 1.92 | F 2.76 | P 1.73 | K 2.23 | Y 2.13
L3: K 1.58 | P 2.58 | Y 1.74 | N 2.31 | H 2.24 | V 2.35 | D 2.63 | M 1.72 | F 2.68 | S 2.4 | G 1.88 | A 1.65 | I 2.58 | Q 1.79 | T 1.97 | W 2.4 | E 2.19
Y6: I 5.07 | P 2.19 | S 1.43 | Q 2.17 | N 1.93 | G 2.23 | A 1.67 | E 2.1 | T 1.77 | H 1.28 | D 2.12 | M 2.36 | K 1.39 | C 1.62 | V 1.45 | L 1.61 | W 3.13 | F 2.73
G5: W 1.53 | D 1.55 | F 3.4 | A 2.27 | T 2.74 | E 3.74 | Q 2.37 | Y 1.49 | M 2.53 | R 2.65 | H 2.32 | P 3.17 | K 2.35 | V 3.83 | N 1.99
